Here are results for eleven molecules from US20210040204A1 (INSERM INSTITUT NATIONAL DE LA SANT ET DE LA RECHERCHE M …, published 2021).

Test [1] deals with T1, human Claudin-1 (human, UniProt O95832 1-211).
T1 construct: whole, on cells; also called CLDN1; human CLDN1
T1 sequence (looked up): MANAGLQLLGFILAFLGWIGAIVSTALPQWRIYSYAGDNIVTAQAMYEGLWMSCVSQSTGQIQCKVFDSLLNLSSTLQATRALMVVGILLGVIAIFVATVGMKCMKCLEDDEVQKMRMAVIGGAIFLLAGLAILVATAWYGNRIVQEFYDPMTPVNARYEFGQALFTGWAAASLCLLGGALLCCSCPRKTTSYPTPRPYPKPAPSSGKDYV
Nature of the test: flow cytometry on Huh7.5.1 and HepG2 cells with surface CLDN1 (FIG. 2A). As for the experimental part:
(§1) FIG. 2. […] (A) Flow cytometry analysis of the binding of humanized OM-7D3-B3 anti-CLDN1 mAbs (20 μg/mL) to cell lines. […] Binding is expressed as delta median fluorescence intensity (ΔMFI). […] After 48 h, cells were stained with isotype control, rat OM-7D3-B3 or humanized H3L3 antibody (20 μg/mL). The ΔMFI from one experiment performed in duplicate are shown. […] Huh 7.5.1 cells were incubated with different mAbs (25 μg/mL) at 37° C. for 1 h prior to infection with HCVcc. Infectivity was assessed after 72 h by measuring luciferase activity and is expressed as log relative luciferase units (RLU). (D) Humanized anti-CLDN1 mAbs inhibit entry of HCVpp bearing envelope glycoproteins of strains H77 (genotype 1a) and HCV-J (genotype 1b). PHH were pre-treated with the humanized antibodies (20 μg/mL) for 1 h at 37° C. prior to infection with HCVpp. Infectivity was measured by luciferase activity after 72 h and is expressed as RLU. Graphs show results from one experiment performed in duplicate (A, B, D) or in triplicate (C).
Flow cytometry. […] Cells were washed and incubated with phycoerythrin (PE)-conjugated species-specific secondary antibodies at 4° C. for 45 min to allow detection of binding. Cells were subsequently washed and fixed with 2% paraformaldehyde (PFA) prior to analysis by flow cytometry using a BD LSRII flow cytometer. Net delta median fluorescence intensities (ΔMFI) were obtained after subtracting the background fluorescence with PBS. […] After 48 h, binding of antibodies was assessed as described above.
In general terms: A flow cytometer gives signals particle by particle.

Test [2] has as its target T1, human Claudin-1. Put plainly: flow cytometry, 20 µg/mL, Huh7.5.1 and HepG2 cells (FIG. 2A). The procedure:
as §1
(§2) Flow cytometry. […] Cells were washed and incubated with phycoerythrin (PE)-conjugated species-specific secondary antibodies at 4° C. for 45 min to allow detection of binding. […] Net delta median fluorescence intensities (ΔMFI) were obtained after subtracting the background fluorescence with PBS. […] After 48 h, binding of antibodies was assessed as described above.

The target of test [3] is T1, human Claudin-1. Put plainly: flow cytometry, 20 µg/mL, 293T cells transfected with CLDN1-expressing pcDNA3.1 (FIG. 2B). The procedure: as §1, §2
Test [4] concerns the target T1, human Claudin-1. Nature of the test: not described (data not shown).

B1: humanized anti-CLDN1 mAb H2L1 (antibody, V domains shown)
VH: QVQLVESGGGVVQPGRSLRLSCAASGFSFSSYGMNWVRQAPGKGLEWVTSISPSGSYFYYADSVKGRFTISRDNSKNTLYLQMNSLRAEDTAIYYCARLPGFNPPFDHWGQGTLVTVSS
VL: DIQMTQSPATLSVSPGERATLSCKASQNVGGNVDWYQWKPGQAPRLLIYGASNRYTGIPARFRGSGSGTEFTLTISSLQSEDFAVYYCLQYKNNPWTFGQGTKVEIK
notes: Full-length antibody made in CHO cells; variable domains fused to the constant domains of human IgG4 heavy and human kappa light chains
For B1, the binding result in test [1] was “binds”.

B2: humanized anti-CLDN1 mAb H2L2 (antibody, V domains shown)
VH: QVQLVESGGGVVQPGRSLRLSCAASGFSFSSYGMNWVRQAPGKGLEWVTSISPSGSYFYYADSVKGRFTISRDNSKNTLYLQMNSLRAEDTAIYYCARLPGFNPPFDHWGQGTLVTVSS
VL: DIQMTQSPSSLSASVGDRVTITCKASQNVGGNVDWYQWKPGKAPKLLIYGASNRYTGVPSRFRGSGSGTDFTLTISSLQPEDVATYYCLQYKNNPWTFGQGTKVEIK
notes: as for B1
Regarding B2, in test [1], the binding result is reported as “binds”.

B3: humanized anti-CLDN1 mAb H1L2 (antibody, V domains shown)
VH: EVQLVESGGGLVKPGGSLRLSCAASGFSFSSYGMNWVRQAPGKGLEWVSSISPSGSYFYYADSVKGRFTISRDNAKNSLYLQMNSLRAEDTAVYYCARLPGFNPPFDHWGQGTLVTVSS
VL: DIQMTQSPSSLSASVGDRVTITCKASQNVGGNVDWYQWKPGKAPKLLIYGASNRYTGVPSRFRGSGSGTDFTLTISSLQPEDVATYYCLQYKNNPWTFGQGTKVEIK
notes: as for B1
Consider B3, for which the binding result in test [1] was “binds”.

B4: humanized anti-CLDN1 mAb H1L3 (antibody, V domains shown)
VH: EVQLVESGGGLVKPGGSLRLSCAASGFSFSSYGMNWVRQAPGKGLEWVSSISPSGSYFYYADSVKGRFTISRDNAKNSLYLQMNSLRAEDTAVYYCARLPGFNPPFDHWGQGTLVTVSS
VL: DIQMTQSPSSLSASVGDRVTITCKASQNVGGNVDWYQWKPGKAPKLLIYGASNRYTGVPDRFRGSGSGTDFTLTISSLQPEDVATYYCLQYKNNPWTFGGGTKVEIK
notes: as for B1
In the case of B4, the binding result in test [1] is “binds”.

B5: humanized anti-CLDN1 mAb H3L1 (antibody, V domains shown)
VH: QVQLVESGGGVVQPGRSLRLSCLGSGFSFSSYGMNWVRQAPGKGLEWVASISPSGSYFYYADSVKGRFTISRDNSKNTLYLQMTSLRAEDTAIYYCARLPGFNPPFDHWGQGTLVTVSS
VL: DIQMTQSPATLSVSPGERATLSCKASQNVGGNVDWYQWKPGQAPRLLIYGASNRYTGIPARFRGSGSGTEFTLTISSLQSEDFAVYYCLQYKNNPWTFGQGTKVEIK
notes: as for B1
For the molecule B5, in test [1], the binding result is on record as “binds”.

B6: humanized anti-CLDN1 mAb H3L2 (antibody, V domains shown)
VH: QVQLVESGGGVVQPGRSLRLSCLGSGFSFSSYGMNWVRQAPGKGLEWVASISPSGSYFYYADSVKGRFTISRDNSKNTLYLQMTSLRAEDTAIYYCARLPGFNPPFDHWGQGTLVTVSS
VL: DIQMTQSPSSLSASVGDRVTITCKASQNVGGNVDWYQWKPGKAPKLLIYGASNRYTGVPSRFRGSGSGTDFTLTISSLQPEDVATYYCLQYKNNPWTFGQGTKVEIK
notes: as for B1
For the molecule B6, the binding result in test [1] is recorded as “binds”.

B7: humanized anti-CLDN1 mAb H1L1 (antibody, V domains shown)
VH: EVQLVESGGGLVKPGGSLRLSCAASGFSFSSYGMNWVRQAPGKGLEWVSSISPSGSYFYYADSVKGRFTISRDNAKNSLYLQMNSLRAEDTAVYYCARLPGFNPPFDHWGQGTLVTVSS
VL: DIQMTQSPATLSVSPGERATLSCKASQNVGGNVDWYQWKPGQAPRLLIYGASNRYTGIPARFRGSGSGTEFTLTISSLQSEDFAVYYCLQYKNNPWTFGQGTKVEIK
notes: as for B1
Take B7: the binding result in test [2] is “binds”.

B8: humanized anti-CLDN1 mAb H2L3 (antibody, V domains shown)
VH: QVQLVESGGGVVQPGRSLRLSCAASGFSFSSYGMNWVRQAPGKGLEWVTSISPSGSYFYYADSVKGRFTISRDNSKNTLYLQMNSLRAEDTAIYYCARLPGFNPPFDHWGQGTLVTVSS
VL: DIQMTQSPSSLSASVGDRVTITCKASQNVGGNVDWYQWKPGKAPKLLIYGASNRYTGVPDRFRGSGSGTDFTLTISSLQPEDVATYYCLQYKNNPWTFGGGTKVEIK
notes: as for B1
Take B8: in test [1], the binding result is reported as “binds”.

B9: humanized anti-CLDN1 mAb H3L3 (antibody, V domains shown)
VH: QVQLVESGGGVVQPGRSLRLSCLGSGFSFSSYGMNWVRQAPGKGLEWVASISPSGSYFYYADSVKGRFTISRDNSKNTLYLQMTSLRAEDTAIYYCARLPGFNPPFDHWGQGTLVTVSS
VL: DIQMTQSPSSLSASVGDRVTITCKASQNVGGNVDWYQWKPGKAPKLLIYGASNRYTGVPDRFRGSGSGTDFTLTISSLQPEDVATYYCLQYKNNPWTFGGGTKVEIK
notes: Full-length antibody made in CHO cells; variable domains fused to the constant domains of human IgG4 heavy and human kappa light chains; also called humanized anti-CLDN1 antibody clone H3L3; humanized CLDN1 mAb (H3L3)
With B9, the binding result in test [3] was “binds”.

B10: rat anti-CLDN1 mAb OM-7D3-B3 (antibody, V domains shown)
VH: EVQLVESGGGLVQPGRSLKLSCLGSGFSFSSYGMNWIRQAPGKGLEWVASISPSGSYFYYADSVKGRFTISRENAKNTLYLQMTSLRAEDTALYYCARLPGFNPPFDHWGQGVVVTVSS
VL: NTVMTQSPTSMFMSVGDRVTMNCKASQNVGGNVDWYQWKPGQSPKLLMYGASNRYTGVPDRFRGSGSGTDFTLTISNMQTEDLAVYYCLQYKNNPWTFGGGTKVELK
notes: Hybridoma antibody, rat IgG2b with rat kappa light chain; also called rat OM-7D3-B3; parental rat antibody
As for B10, the binding result in test [1] is given as “binds”.

B11: recombinant full-length IgG2b (parent isotype) antibody with the VH and VL of rat OM-7D3-B3 (antibody, V domains shown)
VH: EVQLVESGGGLVQPGRSLKLSCLGSGFSFSSYGMNWIRQAPGKGLEWVASISPSGSYFYYADSVKGRFTISRENAKNTLYLQMTSLRAEDTALYYCARLPGFNPPFDHWGQGVVVTVSS
VL: NTVMTQSPTSMFMSVGDRVTMNCKASQNVGGNVDWYQWKPGQSPKLLMYGASNRYTGVPDRFRGSGSGTDFTLTISNMQTEDLAVYYCLQYKNNPWTFGGGTKVELK
notes: IgG2b as the parent; also called recombinant full-length IgG2b antibody
B11: the binding result in test [4] is on record as “binds”.
